For 2 molecules, binding result and percent of SC associated with dimeric IgA-G results are on record in patent US6852319 (Scripps Research, dated 2005).

For assay [1], the target named is T1, purified 185 kD streptococcal antigen (SA) I/II cell surface adhesion molecule (Streptococcus mutans, UniProt P23504 39-1532).
T1 construct: also called purified SA; streptococcal antigen I/II
T1 sequence (looked up): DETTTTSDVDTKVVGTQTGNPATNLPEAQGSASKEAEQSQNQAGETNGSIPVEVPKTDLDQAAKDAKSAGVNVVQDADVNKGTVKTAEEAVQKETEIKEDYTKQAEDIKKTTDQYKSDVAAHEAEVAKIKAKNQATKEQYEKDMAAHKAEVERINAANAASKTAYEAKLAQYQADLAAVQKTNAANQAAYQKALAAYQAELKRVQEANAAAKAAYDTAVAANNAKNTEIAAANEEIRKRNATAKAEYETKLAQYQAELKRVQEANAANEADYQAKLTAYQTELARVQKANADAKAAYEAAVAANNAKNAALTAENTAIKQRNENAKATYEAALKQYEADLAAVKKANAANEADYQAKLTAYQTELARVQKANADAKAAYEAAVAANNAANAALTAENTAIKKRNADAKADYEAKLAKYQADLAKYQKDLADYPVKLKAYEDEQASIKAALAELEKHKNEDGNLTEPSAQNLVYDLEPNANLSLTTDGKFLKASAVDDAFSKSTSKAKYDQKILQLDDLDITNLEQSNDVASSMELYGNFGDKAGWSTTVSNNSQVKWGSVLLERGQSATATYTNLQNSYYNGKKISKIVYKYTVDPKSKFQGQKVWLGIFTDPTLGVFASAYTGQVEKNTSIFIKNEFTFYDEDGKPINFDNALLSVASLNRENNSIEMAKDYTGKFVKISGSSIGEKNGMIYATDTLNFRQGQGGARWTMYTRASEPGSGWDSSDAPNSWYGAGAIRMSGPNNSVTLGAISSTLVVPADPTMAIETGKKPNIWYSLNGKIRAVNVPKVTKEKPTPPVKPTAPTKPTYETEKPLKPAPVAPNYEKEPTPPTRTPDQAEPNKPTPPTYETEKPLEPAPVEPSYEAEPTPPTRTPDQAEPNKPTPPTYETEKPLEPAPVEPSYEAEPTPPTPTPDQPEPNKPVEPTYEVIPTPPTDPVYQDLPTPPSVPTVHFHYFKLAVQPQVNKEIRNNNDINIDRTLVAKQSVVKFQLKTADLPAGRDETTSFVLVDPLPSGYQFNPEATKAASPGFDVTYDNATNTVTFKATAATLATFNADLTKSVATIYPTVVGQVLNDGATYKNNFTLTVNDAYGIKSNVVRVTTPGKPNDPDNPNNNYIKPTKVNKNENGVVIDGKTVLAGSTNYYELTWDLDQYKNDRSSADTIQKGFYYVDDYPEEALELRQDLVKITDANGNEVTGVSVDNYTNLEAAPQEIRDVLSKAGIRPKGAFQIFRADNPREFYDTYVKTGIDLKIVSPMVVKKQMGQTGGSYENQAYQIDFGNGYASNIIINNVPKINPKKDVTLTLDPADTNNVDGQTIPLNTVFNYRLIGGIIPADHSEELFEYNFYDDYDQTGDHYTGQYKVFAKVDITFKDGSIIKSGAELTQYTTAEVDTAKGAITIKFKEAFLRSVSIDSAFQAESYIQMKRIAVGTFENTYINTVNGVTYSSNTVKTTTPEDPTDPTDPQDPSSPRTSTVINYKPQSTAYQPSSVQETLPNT
In words: ELISA of plant leaf extract on purified SA I/II coated plates. A general note: ELISA stands for enzyme-linked immunosorbent assay.

Assay [2] concerns the target dIgA-G, plant-expressed dimeric IgA-G with mouse J chain (murine; mouse) (UniProt P01878). In words: initial estimate in extracts of SIgA-G plants (data not shown).

Chain of dIgA-G, plant-expressed dimeric IgA-G with mouse J chain (murine; mouse) (P01878 116-344, form in doubt): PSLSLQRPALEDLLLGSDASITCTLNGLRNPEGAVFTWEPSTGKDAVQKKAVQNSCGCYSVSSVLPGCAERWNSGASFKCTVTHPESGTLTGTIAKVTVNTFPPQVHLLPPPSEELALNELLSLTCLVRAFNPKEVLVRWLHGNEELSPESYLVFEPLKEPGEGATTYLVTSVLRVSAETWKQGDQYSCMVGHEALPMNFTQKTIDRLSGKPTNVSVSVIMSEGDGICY

B1: mouse J chain expressed in tobacco (other)
chain: GDDEATILADNKCMCTRVTSKIIPSTEDPNEDIVERNIRIVVPLNNRENISDPTSPLRRNFVYHLSDVCKKCDPVEVELEDQVVTATQSNICNEDDGVPETCYMYDRNKCYTTMVPLRYHGETKMVQAALTPDSCYPD
notes: also called joining chain
Regarding B1, the binding result in assay [1] was “no binding”.

B2: rabbit secretory component (SC) construct expressed in tobacco (receptor)
chain: QSSLLGPSSIFGPGEVNVLEGDSVSITCYYPTTSVTRHSRKFWCREEESGRCVTLASTGYTSQEYSGRGKLTDFPDKGEFVVTVDQLTQNDSGSYKCGVGVNGRGLDFGVNVLVSQKPEPDDVVYKQYESYTVTITCPFTYATRQLKKSFYKVEDGELVLIIDSSSKEAKDPRYKGRITLQIQSTTAKEFTVTIKHLQLNDAGQYVCQSGSDPTAEEQNVDLRLLTPGLLYGNLGGSVTFECALDSEDANAVASLRQVRGGNVVIDSQGTIDPAFEGRILFTKAENGHFSVVIAGLRKEDTGNYLCGVQSNGQSGDGPTQLRQLFVNEEIDVSRSPPVLKGFPGGSVTIRCPYNPKRSDSHLQLYLWEGSQTRHLLVDSGEGLVQKDYTGRLALFEEPGNGTFSVVLNQLTAEDEGFYWCVSDDDESLTTSVKLQIVDGEPSPTIDKFTAVQGEPVEITCHFPCKYFSSEKYWCKWNDHGCEDLPTKLSSSGDLVKCNNNLVLTLTLDSVSEDDEGWYWCGAKDGHEFEEVAAVRVELTEPAKVAVEPAKVPVDPAKAAPAPAEEKAKARCPVPRRRQWYPLSRKLRTSCPEPRLLAEEVAVQSAE
notes: also called rabbit SC
With B2, in assay [2], the percent of SC associated with dimeric IgA-G is 50%. The binding result in assay [1] is reported as “no binding”.
